Reference: patent US20260166139A1
“And” between values parts separate entries of the source, which are not always exact repeats. Identical values can stand only once.

Tests used:
CTLA4-mFc [1] = experiment: competitive ELISA, CTLA4-mFc coated, competitor B7/2-His; antibody 1 µg/ml
CTLA4-mFc [2] = experiment: competitive ELISA, competitor B7-2; control run with 8D2
CTLA4-mFc [3] = experiment: competitive ELISA, CTLA4-mFc coated, competitor B7/2-His; antibody 1.5 µg/ml
[4] = target: monkey CTLA4-hFc (monkey); experiment: ELISA, coat monkey CTLA4-hFc 0.25 ug/ml; antibody 1:81 (start 1 ug/ml)
CTLA4-mFc [5] = experiment: competitive ELISA, B7/1-hFc coated (competitor), CTLA4-mFc added; antibody 5 µg/ml diluted 1:3
CTLA4-mFc [6] = experiment: competition ELISA, coat B7/1-hFc 0.2 ug/ml (competitor), CTLA4-mFc 0.3 ug/ml detected; antibody 3 ug/ml
CTLA4-mFc [7] = experiment: competitive ELISA, CTLA4-mFc coated, competitor B7/2-His; antibody 1 µg/ml diluted 1:3
CTLA4-mFc [8] = experiment: competitive ELISA, CTLA4-mFc coated, competitor B7/2-His; antibody 1 µg/ml diluted 1:729
CTLA4-mFc [9] = experiment: competitive ELISA, B7/1-hFc coated (competitor), CTLA4-mFc added; antibody 5 µg/ml diluted 1:243
human CTLA4 (human) [10] = target: human CTLA4 (human) (UniProt P16410); experiment: ELISA, coat human CTLA4 0.5 ug/ml; antibody 0 (blank)
human CTLA4 (human), sequence (P16410 36-161 limits assumed): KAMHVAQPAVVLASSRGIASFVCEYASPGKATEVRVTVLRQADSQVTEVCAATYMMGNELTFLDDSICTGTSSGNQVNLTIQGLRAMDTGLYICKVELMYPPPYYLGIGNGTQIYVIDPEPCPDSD

human CTLA4 (human) [11] = target: human CTLA4 (human) (UniProt P16410); experiment: ELISA, coat CTLA4 0.5 ug/ml; antibody 1:3 (start 1 ug/ml)
CTLA4-mFc [12] = experiment: competitive ELISA, B7/1-hFc coated (competitor), CTLA4-mFc added; antibody 5 µg/ml diluted 1:9
CTLA4-mFc [13] = experiment: competitive ELISA, CTLA4-mFc coated, competitor B7/2-His; antibody 1.5 µg/ml diluted 1:729
CTLA4-mFc [14] = experiment: competitive ELISA, competitor B7-2; control run with 8D2H2L17
[15] = target: monkey CTLA4-hFc (monkey); experiment: ELISA on coated CTLA4, source Monkey (row of 8D2H2L2)
CTLA4-mFc [16] = experiment: competitive ELISA, CTLA4-mFc coated, competitor B7/2-His; antibody 1 µg/ml diluted 1:9
human CTLA4 (human) [17] = target: human CTLA4 (human) (UniProt P16410); experiment: ELISA, coat CTLA4 0.5 ug/ml; antibody 1:729 (start 1 ug/ml)
CTLA4-mFc [18] = experiment: competitive ELISA, competitor B7-1; control run with 8D2H2L2
human CTLA4 (human) [19] = target: human CTLA4 (human) (UniProt P16410); experiment: ELISA, coat human CTLA4 0.5 ug/ml; antibody 1:729 (start 1 ug/ml)
CTLA4-mFc [20] = experiment: competitive ELISA, competitor B7-1; control run with 8D2H3L3
CTLA4-mFc [21] = experiment: competitive ELISA, competitor B7-2; control run with 8D2H1L1
[22] = target: monkey CTLA4-hFc (monkey); experiment: ELISA, coat monkey CTLA4-hFc 0.25 ug/ml; antibody 1:243 (start 1 ug/ml)
CTLA4-mFc [23] = experiment: competitive ELISA, CTLA4-mFc coated, competitor B7/2-His; antibody 1.5 µg/ml diluted 1:3
human CTLA4 (human) [24] = target: human CTLA4 (human) (UniProt P16410); experiment: ELISA on coated CTLA4, source Human (row of 8D2H2L2)
CTLA4-mFc [25] = experiment: competitive ELISA, B7/1-hFc coated (competitor), CTLA4-mFc added; antibody 5 µg/ml diluted 1:27
[26] = target: monkey CTLA4-hFc (monkey); experiment: ELISA, coat monkey CTLA4-hFc 0.25 ug/ml; antibody 1:9 (start 1 ug/ml)
human CTLA4 (human) [27] = target: human CTLA4 (human) (UniProt P16410); experiment: ELISA, coat human CTLA4 0.5 ug/ml; antibody 1:9 (start 1 ug/ml)
CTLA4-mFc [28] = experiment: competitive ELISA, CTLA4-mFc coated, competitor B7/2-His; antibody 1.5 µg/ml diluted 1:81
human CTLA4 (human) [29] = target: human CTLA4 (human) (UniProt P16410); experiment: ELISA, coat CTLA4 0.5 ug/ml; antibody 1:9 (start 1 ug/ml)
CTLA4-mFc [30] = experiment: competitive ELISA, competitor B7-1; control run with 8D2H2L15
CTLA4-mFc [31] = experiment: competitive ELISA, CTLA4-mFc coated, competitor B7/2-His; antibody 3 µg/ml diluted 1:81
murine CTLA4 (murine) = murine CTLA4 (murine) (UniProt P09793); experiment: ELISA on coated CTLA4, source Mouse (row of 8D2(Re))
human CTLA4 (human) [32] = target: human CTLA4 (human) (UniProt P16410); experiment: ELISA, coat human CTLA4 0.5 ug/ml; antibody 1:27 (start 1 ug/ml)
CTLA4-mFc [33] = experiment: competitive ELISA, competitor B7-2; control run with 8D2(Re)
CTLA4-mFc [34] = experiment: competitive ELISA, B7/1-hFc coated (competitor), CTLA4-mFc added; antibody 5 µg/ml diluted 1:9; remark: listed apart in the source
CTLA4-mFc [35] = experiment: competitive ELISA, B7/1-hFc coated (competitor), CTLA4-mFc added; antibody 5 µg/ml diluted 1:27; remark: listed apart in the source
CTLA4-mFc [36] = experiment: competitive ELISA, B7/1-hFc coated (competitor), CTLA4-mFc added; antibody 5 µg/ml
CTLA4-mFc [37] = experiment: competitive ELISA, CTLA4-mFc coated, competitor B7/2-His; antibody 1 µg/ml diluted 1:81
CTLA4-mFc [38] = experiment: competitive ELISA, CTLA4-mFc coated, competitor B7/2-His; antibody 1 µg/ml diluted 1:27

control antibody 11.2.1, sequence (VH): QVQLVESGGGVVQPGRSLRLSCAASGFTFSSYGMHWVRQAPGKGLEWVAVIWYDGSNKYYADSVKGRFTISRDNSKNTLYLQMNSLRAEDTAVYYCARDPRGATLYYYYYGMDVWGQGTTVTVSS
control antibody 11.2.1, sequence (VL): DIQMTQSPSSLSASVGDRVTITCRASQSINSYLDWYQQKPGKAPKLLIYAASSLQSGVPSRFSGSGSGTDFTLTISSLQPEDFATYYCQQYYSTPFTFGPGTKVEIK
CTLA4-mFc, sequence (chain, as listed by the source limits assumed): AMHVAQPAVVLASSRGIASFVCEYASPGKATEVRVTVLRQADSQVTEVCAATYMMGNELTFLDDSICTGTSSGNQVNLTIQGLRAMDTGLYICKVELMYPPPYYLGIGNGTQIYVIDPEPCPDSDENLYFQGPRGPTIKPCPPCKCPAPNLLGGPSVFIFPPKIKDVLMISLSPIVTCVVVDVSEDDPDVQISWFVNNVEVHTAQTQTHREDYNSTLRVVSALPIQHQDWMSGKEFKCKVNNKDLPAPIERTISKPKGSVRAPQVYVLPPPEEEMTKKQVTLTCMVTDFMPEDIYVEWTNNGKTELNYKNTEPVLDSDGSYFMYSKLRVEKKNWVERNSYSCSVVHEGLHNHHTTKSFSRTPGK

- absorbance at 450 nm (CTLA4-mFc [1]): 0.04
- EC50 (CTLA4-mFc [2]): 0.15 nM
- absorbance at 450 nm (CTLA4-mFc [3]): 0.372 and 0.494
- absorbance at 450 nm [4]: 0.297 and 0.313
- absorbance at 450 nm (CTLA4-mFc [5]): 0.08
- absorbance at 450 nm (CTLA4-mFc [6]): 0.101 and 0.105
- absorbance at 450 nm (CTLA4-mFc [7]): 0.05
- absorbance at 450 nm (CTLA4-mFc [8]): 0.87 and 0.85
- absorbance at 450 nm (CTLA4-mFc [9]): 0.755 and 0.9
- absorbance at 450 nm (human CTLA4 (human) [10]): 0.057 and 0.061
- absorbance at 450 nm (human CTLA4 (human) [11]): 2.56 and 2.66
- absorbance at 450 nm (CTLA4-mFc [12]): 0.16 and 0.138
- absorbance at 450 nm (CTLA4-mFc [13]): 0.981 and 0.746
- EC50 (CTLA4-mFc [14]): 0.349 nM
- EC50 [15]: 0.075 nM
- absorbance at 450 nm (CTLA4-mFc [16]): 0.17 and 0.16
- absorbance at 450 nm (human CTLA4 (human) [17]): 0.32 and 0.31
- EC50 (CTLA4-mFc [18]): 1.07 nM
- absorbance at 450 nm (human CTLA4 (human) [19]): 0.253 and 0.263
- EC50 (CTLA4-mFc [20]): 1.07 nM
- EC50 (CTLA4-mFc [21]): 0.15 nM
- absorbance at 450 nm [22]: 0.13 and 0.172
- absorbance at 450 nm (CTLA4-mFc [23]): 0.437 and 0.348
- EC50 (human CTLA4 (human) [24]): 0.09 nM
- absorbance at 450 nm (CTLA4-mFc [25]): 1.14 and 1.19
- absorbance at 450 nm [26]: 1.11 and 1.05
- absorbance at 450 nm (human CTLA4 (human) [27]): 1.29 and 1.41
- absorbance at 450 nm (CTLA4-mFc [28]): 0.805 and 0.649
- absorbance at 450 nm (human CTLA4 (human) [29]): 2.69 and 2.44
- EC50 (CTLA4-mFc [30]): 2.61 nM
- absorbance at 450 nm (CTLA4-mFc [31]): 1.12 and 0.965
- EC50 (murine CTLA4 (murine)): 0.023 nM
- absorbance at 450 nm (human CTLA4 (human) [32]): 0.893 and 0.682
- EC50 (CTLA4-mFc [33]): 0.15 nM
- absorbance at 450 nm (CTLA4-mFc [34]): 0.33 and 0.3
- absorbance at 450 nm (CTLA4-mFc [35]): 0.488 and 0.369
- absorbance at 450 nm (CTLA4-mFc [36]): 0.08 and 0.089
- absorbance at 450 nm (CTLA4-mFc [37]): 0.84 and 0.76
- absorbance at 450 nm (CTLA4-mFc [38]): 0.57
Substance: control antibody 11.2.1
